Experimental data taken from PMC7667037.

How the values were obtained:
Conditions in all cases: EMSA: 1 nM probe, 1 mM Tris-HCl pH 7.5, 0.1 mM EDTA, 0.2 mM DTT, 5 mM MgCl2, 10 mM KCl, 20 min 37 C; PhoP with 0.1 M acetyl phosphate; footprinting DNase I …
[1] = molecular target: T1, PhoP (Escherichia coli O157:H7 (EHEC; strain EDL933?)) (UniProt Q8X738); assay: EMSA
T1 sequence: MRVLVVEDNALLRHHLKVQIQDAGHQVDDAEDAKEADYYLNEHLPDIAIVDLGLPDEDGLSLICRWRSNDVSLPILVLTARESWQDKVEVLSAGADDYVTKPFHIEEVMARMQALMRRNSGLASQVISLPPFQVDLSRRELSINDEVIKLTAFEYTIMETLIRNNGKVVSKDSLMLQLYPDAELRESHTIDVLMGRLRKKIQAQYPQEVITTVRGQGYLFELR

[2] = tested on: T2, LmiA (Z4267) (Escherichia coli O157:H7 (EHEC; strain EDL933?)), ORF:92023632; assay: EMSA
T2 sequence: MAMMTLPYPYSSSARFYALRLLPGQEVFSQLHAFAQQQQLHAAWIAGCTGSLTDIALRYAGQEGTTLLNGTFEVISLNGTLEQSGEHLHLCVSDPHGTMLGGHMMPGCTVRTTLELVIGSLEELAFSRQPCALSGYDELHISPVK

[3] = molecular target: T1, PhoP (Escherichia coli O157:H7 (EHEC; strain EDL933?)); assay: competition

Question: With “AATATGGGTAGGGCAATGTCATCATTGGAGTACTCCGAAACTCGGACGTATTACGGATAATATCGACGCTGCATCAGTCATATTCTGATATAAGTCAGGGTTTGTGACGGCACAACGAAAAGATTTTGCTACGCTTATTCGTGATTCTGCAAAGTGGAATAAATTCCACAGGGGCGGGGCTGAGTTGGTGACGAGGGTCAGATAATTGTTTTCTTTGACTGGAC (double strand) [PlmiA-2]” as the sequence, how does the binding [1] read?
Answer: no binding

Question: How did the binding [2] turn out when “AGATTCATCTGCAGGCTCTGAAGTAAGTATACGTGTGAATATTATTGCTTGAAAAAGCGTATTGGATAATATATACAGTATATGTACTTTATGTACATTGCAACTATTTAAATAATATAATAGTTGCCTATGGGATAATTTGGTTATTTATAACCAGGTAAATGTCTAAATTAGACAAAAGGAGAAAGATCAATGGAAGCAGCAAATTTAAGTCCTTCTGGTGCAGTAATG (double strand) [PLEE2/3]” was run?
Answer: no binding

Question: “CATTAGCCATTGGAAACTCACGTAATCATTAATTATGAATATTCCATTAAATAGTACTGTACAACAGCTTCCTTTCTACTCTATTCTTAGACGATGTAAGTTCACCATATTTTTTCTCATTGTTCAACCACCAGGATGAATAAAATTTAAAAATGTTATCCTCATATAAAATAAAACTTCTCAATGGTGCGATGCG (double strand) [PLEE4]” was tested. Which binding [2] did it give?
Answer: no binding

Question: Which binding [1] does the source give for “GTCCAGTCAAAGAAAACAATTATCTCAGCCCCGCCCCTGTGGAATTTATTCCACTTTGCAGAATCACGAATAAGCGTAGCAAAATCTTTTCGTTGTGCCGTCACAAACCCTGACTTATATCAGAATATGACTGATGCAGCGTCGATATTATCCGTAATACGTCCGAGTTTCGGAGTACTCCAATGATGACATTGCCCTACCCATATT (double strand) [PlmiA-1]” here?
Answer: no binding

Question: Which binding [3] does the source give for “GTCCAGTCAAAGAAAACAATTATCTGACTTACGTCACGTTTTCAGCCCCGCCCCTGTGGAATTTATTCCACTTTGCAGAATCACGAATAAGCGTAGCAAAATCTTTTCGTTGTGCCGTCACAAACCCTGACTTATATCAGAATATGACTGATGCAGCGTCGATATTATCCGTAATACGTCCGAGTTTCGGAGTACTCCAATGATGACATTGCCCTACCCATATT (double strand) [PlmiA unlabeled competitor]” here?
Answer: binds

Question: How did the binding [1] turn out when “GTCCAGTCAAAGAAAACAATTATCTGACTTACGTCACGTTTTCAGCCCCGCCCCTGTGGAATTTATTCCACTTTGCAGAATCACGAATAAGCGTAGCAAAATCTTTTCGTTGTGCCGTCACAAACCCTGACTTATATCAGAATATGACTGATGCAGCGTCGATATTATCCGTAATACGTCCGAGTTTCGGAGTACTCCAATGATGACATTGCCCTACCCATATT (double strand) [PlmiA]” was run?
Answer: binds
